These are literature values, as cited in article PMC7212196.

For orientation: Kd means the free concentration of one partner at which half of the binding sites on the other are occupied at equilibrium, for simple one-to-one binding.

In this series the target is soluble IL-6 receptor (Homo sapiens) (UniProt P08887).
Sequence of UniProt P08887 (P08887 20-355): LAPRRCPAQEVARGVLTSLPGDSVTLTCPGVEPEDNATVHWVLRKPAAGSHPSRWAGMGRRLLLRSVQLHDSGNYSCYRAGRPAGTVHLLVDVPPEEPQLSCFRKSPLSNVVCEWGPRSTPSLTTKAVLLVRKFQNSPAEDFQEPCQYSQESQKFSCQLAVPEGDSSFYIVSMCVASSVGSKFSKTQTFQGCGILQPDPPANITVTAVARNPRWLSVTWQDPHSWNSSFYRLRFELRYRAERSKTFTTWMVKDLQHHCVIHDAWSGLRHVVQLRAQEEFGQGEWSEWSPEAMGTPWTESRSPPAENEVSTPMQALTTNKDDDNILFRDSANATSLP

Sequence of IL-6 (P05231 30-212): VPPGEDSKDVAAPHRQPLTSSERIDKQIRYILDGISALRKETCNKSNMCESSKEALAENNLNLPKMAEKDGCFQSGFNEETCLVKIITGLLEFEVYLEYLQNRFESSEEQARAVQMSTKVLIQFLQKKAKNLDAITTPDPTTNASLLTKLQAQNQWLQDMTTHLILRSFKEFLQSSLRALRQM

Turning to IL-6 (from UniProt P05231), the Kd is 5 nM.
